One test deals with hu-CD96D1 D3-hFc (human). Briefly: ELISA, coated CD96D1D3-hFc. Here is the method: (§1) CD96 binding of purified hybridoma antibodies: The hu-CD96 and cy-CD96 antigen binding ELISA was performed on the purified hybridoma antibodies. Briefly, 96-well MAXISORP® flat bottom plates (Thermo Fisher Scientific, Waltham, MA; Cat #439454) were coated overnight at 4° C. with 0.5 µg/mL of hu-CD96D1 D3-hFc and cynomolgus monkey CD96D1 D3-hFc in PBS. After removing the coating solution, unspecific binding was blocked by PBS containing 1% bovine serum albumin (blocking buffer) and incubation at room temperature for one hour. Plates were then washed three times with PBS and 0.05% TWEEN®-20 (wash buffer). Serial dilution of purified antibodies in PBS containing 0.5% BSA and 0.05% Tween 20 (ELISA buffer) was added to individual wells followed by incubation at room temperature for one hour with agitation. Plates were washed three times with wash buffer, then 100 µL/well of anti-mouse IgG-HRP (Thermo Fisher Scientific, Waltham, MA; Cat #626520) in ELISA buffer was added. […] Enzymatic color development was stopped with 50 µL/well of TMB stop solution (VWR/Avantor, Radnor, PA, USA; Cat #95059-200). Plates were analyzed with a SpectraMax i3X plate reader (Molecular Devices LLC, San Jose, CA, USA) at 450 nm.

In test [1] the target is T1, cynomolgus monkey CD96D1 D3-hFc (cynomolgus monkey).
T1 construct: also called cy-CD96D1 D3
T1 sequence (chain, as listed by the source limits assumed): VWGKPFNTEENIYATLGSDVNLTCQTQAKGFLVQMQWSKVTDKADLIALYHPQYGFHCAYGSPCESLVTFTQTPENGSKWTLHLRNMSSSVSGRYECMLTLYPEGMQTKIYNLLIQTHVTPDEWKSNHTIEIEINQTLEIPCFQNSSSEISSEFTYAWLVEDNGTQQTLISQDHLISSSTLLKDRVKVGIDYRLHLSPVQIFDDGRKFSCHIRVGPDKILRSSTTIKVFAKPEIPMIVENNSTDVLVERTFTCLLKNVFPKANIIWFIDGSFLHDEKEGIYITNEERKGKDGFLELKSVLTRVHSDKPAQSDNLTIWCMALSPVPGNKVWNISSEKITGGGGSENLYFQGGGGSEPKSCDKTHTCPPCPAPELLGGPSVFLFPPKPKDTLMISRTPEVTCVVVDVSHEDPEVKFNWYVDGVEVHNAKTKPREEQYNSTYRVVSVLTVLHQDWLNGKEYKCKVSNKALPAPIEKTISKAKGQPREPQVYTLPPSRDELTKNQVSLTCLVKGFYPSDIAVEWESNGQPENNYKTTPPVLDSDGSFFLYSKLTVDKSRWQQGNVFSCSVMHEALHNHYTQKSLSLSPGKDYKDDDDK
Briefly: ELISA, coated CD96D1D3-hFc. Here is the method:
as §1
For orientation: ELISA stands for enzyme-linked immunosorbent assay.

In test [2] the target is T2, recombinant hu-CD96 (M1-M503-polyHis) (human, UniProt P40200 22-519).
T2 construct: also called hu-CD96-his
T2 sequence: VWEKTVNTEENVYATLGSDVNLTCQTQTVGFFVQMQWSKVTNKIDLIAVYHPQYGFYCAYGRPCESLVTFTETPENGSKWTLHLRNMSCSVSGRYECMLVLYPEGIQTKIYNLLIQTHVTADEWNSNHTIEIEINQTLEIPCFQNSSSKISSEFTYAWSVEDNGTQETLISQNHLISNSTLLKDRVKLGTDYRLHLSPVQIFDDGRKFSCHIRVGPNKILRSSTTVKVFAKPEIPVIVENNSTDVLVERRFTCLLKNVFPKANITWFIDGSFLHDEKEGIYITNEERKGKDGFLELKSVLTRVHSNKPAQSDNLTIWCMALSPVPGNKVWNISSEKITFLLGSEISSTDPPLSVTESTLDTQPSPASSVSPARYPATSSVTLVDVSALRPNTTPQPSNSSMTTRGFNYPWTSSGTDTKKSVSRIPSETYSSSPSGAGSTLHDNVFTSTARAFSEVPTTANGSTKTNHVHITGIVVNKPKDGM
Briefly: ELISA, blocks hu-CD96-his binding to coated CD155-hFc. Here is the method:
as §1
CD155 receptor blocking of purified hybridoma antibodies: Human CD155 blocking ELISA was performed on purified hybridoma antibodies following the same protocol as described for CD96 (above), except that serial dilution of purified antibodies 50 µL/well (starting at 1 µM, 1:5 dilution) in assay buffer was added into the reaction.

For test [3], the target named is T3, hu-CD96 (soluble, isoform 2 extracellular domain) (human, UniProt P40200 22-516, biotinylated in Octet and blocking ELISA).
T3 construct: the assays name only hu-CD96; also called hCD96; biotinylated hu-CD96
T3 sequence: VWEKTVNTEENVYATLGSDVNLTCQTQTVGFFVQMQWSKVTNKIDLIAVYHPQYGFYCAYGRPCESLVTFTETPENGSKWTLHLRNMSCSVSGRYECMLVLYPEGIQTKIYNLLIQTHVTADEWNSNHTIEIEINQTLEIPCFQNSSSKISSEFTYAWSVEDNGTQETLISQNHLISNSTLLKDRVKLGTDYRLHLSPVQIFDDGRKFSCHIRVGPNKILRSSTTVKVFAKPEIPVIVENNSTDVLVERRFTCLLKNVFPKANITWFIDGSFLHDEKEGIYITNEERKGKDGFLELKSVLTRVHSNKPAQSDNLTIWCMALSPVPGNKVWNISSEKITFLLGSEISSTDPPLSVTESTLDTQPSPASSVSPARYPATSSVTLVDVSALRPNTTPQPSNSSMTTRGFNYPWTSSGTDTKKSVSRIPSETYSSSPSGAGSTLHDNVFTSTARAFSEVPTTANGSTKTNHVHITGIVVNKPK
Briefly: BLI (Octet), biotin-CD96 on SA, Fab analyte. In general terms: Biolayer interferometry detects binding as a change in optical thickness at a sensor tip.

Test [4] has as its target T4, cy-CD96 (soluble, extracellular domain) (cynomolgus monkey, UniProt P40200 22-516 (human entry), biotinylated in Octet and blocking ELISA).
T4 construct: the assays name only cy-CD96; also called biotinylated cy-CD96
T4 chain: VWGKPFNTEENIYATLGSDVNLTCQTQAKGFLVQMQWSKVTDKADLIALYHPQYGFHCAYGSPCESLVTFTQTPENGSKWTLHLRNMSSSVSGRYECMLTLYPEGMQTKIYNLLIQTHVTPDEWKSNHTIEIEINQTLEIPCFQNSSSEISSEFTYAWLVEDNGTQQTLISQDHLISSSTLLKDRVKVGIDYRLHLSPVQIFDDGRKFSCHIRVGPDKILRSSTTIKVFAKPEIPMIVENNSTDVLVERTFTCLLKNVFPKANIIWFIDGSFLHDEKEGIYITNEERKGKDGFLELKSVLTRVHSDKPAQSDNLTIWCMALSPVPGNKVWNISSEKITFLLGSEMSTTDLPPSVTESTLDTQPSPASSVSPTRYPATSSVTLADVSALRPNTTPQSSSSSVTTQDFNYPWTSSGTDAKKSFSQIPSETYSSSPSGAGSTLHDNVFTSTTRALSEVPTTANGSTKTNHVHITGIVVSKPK
Briefly: BLI (Octet), biotin-CD96 on SA, Fab analyte.

In the next test the target is T5, hu-CD96 Fc (human, biotinylated in Table 16).
T5 construct: also called biotinylated hu-CD96-Fc
Briefly: SPR (Biacore), Fab. (In general: SPR reads the build-up and loss of mass on a sensor chip optically.)

Test [5] addresses T3, hu-CD96 (soluble, isoform 2 …). Briefly: CD155 blocking ELISA.
Test [6] deals with T6, hu-CD96 isoform 2 on CHO cells (human, UniProt P40200 22-585).
T6 construct: also called CHO-CD96 (isoform 2); CD96-CHOs
T6 sequence: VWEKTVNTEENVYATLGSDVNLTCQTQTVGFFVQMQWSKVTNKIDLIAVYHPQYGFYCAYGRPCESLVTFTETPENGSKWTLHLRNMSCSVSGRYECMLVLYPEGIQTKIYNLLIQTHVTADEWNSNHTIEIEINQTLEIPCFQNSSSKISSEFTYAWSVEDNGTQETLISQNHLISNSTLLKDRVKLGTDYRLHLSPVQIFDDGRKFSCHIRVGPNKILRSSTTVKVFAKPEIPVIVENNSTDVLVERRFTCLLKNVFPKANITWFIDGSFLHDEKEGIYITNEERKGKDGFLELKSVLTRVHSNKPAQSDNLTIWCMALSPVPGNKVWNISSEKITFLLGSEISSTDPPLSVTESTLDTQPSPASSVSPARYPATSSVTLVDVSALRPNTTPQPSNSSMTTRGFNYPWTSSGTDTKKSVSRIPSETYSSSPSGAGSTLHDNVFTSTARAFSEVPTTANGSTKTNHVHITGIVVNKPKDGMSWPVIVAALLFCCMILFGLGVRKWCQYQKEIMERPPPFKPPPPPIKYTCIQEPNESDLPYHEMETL
Briefly: FACS, Ab 2 nM. The method, then: (§2) Isoform 1 of hu-CD96 (Origene, catalog #RC213845) was transiently expressed in HEK293T cells following standard lipofectamine or Fugene transfection protocol. […] Cells were washed, and binding was detected by incubation with anti-mouse IgG-FITC (Biolegend, catalog #406001) for 20 minutes at 4° C. Cell binding was analyzed by flow cytometry with a CytoFLEX (Beckman Coulter). Binding curves were calculated as a percentage of cells positive for bound antibody.
(§3) Isoform 2 of hu-CD96 (DNA construct: Origene, catalog #RC221005) was expressed on a single-cell-clone-derived CHO stable cell line. Binding of the anti-CD96 antibodies to the CHO cells were determined as described above with isoform 1 of hu-CD96.

Test [7] has as its target T6, hu-CD96 isoform 2 on CHO cells. Briefly: FACS, Ab 10 nM. Here is the method: as §2, §3
The target is the same in test [8]. Briefly: FACS, Ab 50 nM. The method, then: as §2, §3
Test [9] has the same target. Briefly: FACS, Ab 0.4 nM. Here is the method:
as §2, §3

For test [10] the target is unchanged. Briefly: FACS, Ab 0.08 nM. The method, then:
as §2, §3

The target is the same in test [11]. Briefly: FACS, Ab 0.016 nM. Here is the method: as §2, §3
Test [12] shares this target. Briefly: FACS, Ab 0.0032 nM. The method, then: as §2, §3
For test [13] the target is unchanged. Briefly: FACS, % positive curve. The method, then:
as §2, §3

Where a chain is given by its changes, count along the chain named. In names and notes the source's numbering stands.

B1: 12F8 (clone 12F8.12B5), purified hybridoma antibody (antibody, V domains shown)
VH: QVQLQQPGAELVTPGASVKLSCKASGFTFTNNWMHWVKQRPGQGLEWIGMIHPNSGITNINEKFKNKATVTVDKSSSTVYIQLSSLTSEDSAVYYCRSDGTYEGYFDYWGQGTPLTVSS
VL: DIVMTQSQKFMSTSVGDRVSVTCKASQNVGTAIVWYQKKPGQSPKTLIYSASTRYTGVPDRFTGSGSGTDFTLTISNVQSEDLAEYFCQQYSSSPLTFGSGTKLEIK
notes: murine hybridoma IgG
For B1, the EC50 (commonly the concentration giving half of the maximal effect) in the test with hu-CD96D1 D3-hFc is 0.25 nM; in test [1], roughly 10 nM. In test [2], the IC50 (as a rule, the concentration that inhibits the measured activity by half) stood at 0.95 nM.

B2: 10H5, purified hybridoma antibody (antibody, V domains shown)
VH: QVQLQQSGADLARPGASIKLSCKASGYTFTGYGVTWVKQSTGQGLDWIGEIYPGTVITYYNAKFKGKATLTADKSSSTAYMELRSLTSEDSAVYFCARGLGRAMDYWGQGTSVTVSS
VL: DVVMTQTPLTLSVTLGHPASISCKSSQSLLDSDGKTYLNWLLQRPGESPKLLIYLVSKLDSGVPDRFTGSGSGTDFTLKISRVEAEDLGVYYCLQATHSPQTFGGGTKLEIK
notes: murine hybridoma IgG
In the case of B2, the concentration for a half-maximal effect (EC50) with hu-CD96D1 D3-hFc stood at 0.05 nM. In addition, the IC50 in test [2] came to 0.958 nM.

B3: mAb1.v7.NGS7 Fab (Fab, V domains shown)
VH: EVQLVQSGAEVKKPGASVKVSCKASGFTFTNNWMHWVRQAPGQGLEWIGMIHPNSGITNINEKFKNRVTMTTDTSTSTAYMELRSLRSEDTAVYYCRSDGVYEGYFDYWGQGTLVTVSS
VL: DIQLTQSPSSLSASVGDRVTITCKASQNVGTAIVWYQQKPGKAPKVLIYSASTRYTGVPSRFSGSGSGTDFTLTISSLQPEDFATYYCQQYSSSPLTFGQGTKVEIK
notes: also called T97V
With B3, the figures for the Kd in test [3] and in test [4] were 5.61 nM and 383 nM, respectively.

B4: mAb1.v7.NGS8 Fab (Fab, V domains shown)
VH: B3 VH with W33F, P53A, V101I
VL: B3 VL
notes: Fab with 8xHis tag; also called W33F/P52aA/T97I
As to B4, in the test with hu-CD96 Fc, binding was characterised by a dissociation constant (Kd) of 1.8 nM; the off-rate (koff) – broadly, a measure of how fast the partners let go of each other – was determined as 2.53e-05 s⁻¹; the kon (as a rule, a measure of how fast the partners come together) was 16700 M⁻¹ s⁻¹. This molecule showed a half-maximal inhibitory concentration (IC50) in test [5] of 0.2 nM. Binding in [3] was put at a Kd of 0.1 nM.

B5: 1G8, purified hybridoma antibody (antibody, V domains shown)
VH: QVQLQQSGPELLKPGASVKISCKASGYTFTDYYINWVKQRPGQGLEWIGWIFPGTEGIYYNEKFKGKATLTVDKSSTTAYMLLSSLTSEDSAVYFCAREGDYRYYSPLGYWGQGTLVTVSA
VL: DIQMNQSPSSLSASLGDTITITCRVSQDISFWLSWYQQKPGNIPKLLIYKASNLHTGVPPRFSGSGSGTDFTLTISSLQPEDIAAYYCLQSQSYPYTFGGGTKLEIK
notes: murine hybridoma IgG
For the molecule B5, the “% positive” value in [6] was determined as 26.2%; in [7], 35.3%; in test [8], 34.8%; in [9], 7.1%; in test [10], 0.2%; in test [11] it was 0%. The “% positive” value in test [12] came to 0.1%. Besides, the values for the EC50 (in test [13]; in the test with hu-CD96D1 D3-hFc) were 1.04 nM and 0.072 nM, respectively. In addition, the binding result in [1] was “no binding”. Besides, in test [2], the IC50 amounted to 0.883 nM.

B6: 16D9, purified hybridoma antibody (antibody, V domains shown)
VH: QVQLQQSGPELVKPGASVKISCKASGYNFNDYYINWVNQRPGQGLEWIGWIFPGRIITYYNEKFKGKATLTVDTSSNTAYMLLSSLTSEDSAVYFCARGVGEGFDYWGQGTTLTVSS
VL: ENVLTQSPAIMSATLGEKVTMNCRASSNVKYMYWYQQKSGVSPKLWIYYTSNLASGVPTRFSGSGSGTSYSLTISSVEAEDAATYYCQQFTSSPLTFGAGTKLELK
notes: murine hybridoma IgG
In the test with hu-CD96D1 D3-hFc, B6 yielded an EC50 of 0.05 nM. In test [1], the binding result was “no binding”. Moreover, the IC50 in [2] was found to be 1.06 nM.

The record behind these values is US12365732 (23ANDME, dated 2025).
